{"source": "paper PMC4895972", "about": "“Calcium binding protects E-cadherin from cleavage by Helicobacter pylori HtrA” (Gut Pathogens, 2016)", "proteins": {"B1": {"name": "recombinant HtrA (high temperature requirement A) from H. pylori strain 26695, wildtype (enzyme)", "chain": "GNIQIQSMPKVKERVSVPSKDDTIYSYHDSIKDSIKAVVNISTEKKIKNNFIGGGVFNDPFFQQFFGDLGGMIPKERMERALGSGVIISKDGYIVTNNHVIDGADKIKVTIPGSNKEYSATLVGTDSESDLAVIRITKDNLPTIKFSDSNDISVGDLVFAIGNPFGVGESVTQGIVSALNKSGIGINSYENFIQTDASINPGNSGGALIDSRGGLVGINTAIISKTGGNHGIGFAIPSNMVKDTVTQLIKTGKIERGYLGVGLQDLSGDLQNSYDNKEGAVVISVEKDSPAKKAGILVWDLITEVNGKKVKNTNELRNLIGSMLPNQRVTLKVIRDKKERAFTLTLAERKNPNKKETISAQNGAQGQLNGLQVEDLTQETKRSMRLSDDVQGVLVSQVNENSPAEQAGFRQGNIITKIEEVEVKSVADFNHALEKYKGKPKRFLVLDLNQGYRIILVK", "notes": "also called HpHtrA; H. pylori HtrA; source: E. coli BL21, purified (GSH-Sepharose, GST-tag removed with PreScission protease, dialyzed against 50 mM Tris pH 7.5)"}}, "molecular_target": "the molecule itself", "assay": "non-reducing SDS-PAGE; 3 µg HpHtrA preincubated in 50 mM HEPES pH 7.5 without or with increasing concentrations of CaCl2; sample buffer without β-mercaptoethanol; Coomassie-stained"}
{"protein": "B1", "values": [{"measurement": "binding result", "value": "binds"}]}
